Earlier results in patent US20250101104A1, “BISPECIFIC MOLECULE WITH TUNABLE AFFINITY TO A TARGETED ANTIGEN” (MABSWITCH INC., priority 2022, published 2025).

Test system: AML cell lines and primary AML blasts
Conditions: in vitro and in NOD SCID mice injected with human AML

B1: MGDO06: CD3×CD123 DART (Macrogenics) (antibody, chains of the INN, looked up, V domains shown)
VH: EVQLVQSGAELKKPGASVKVSCKASGYTFTDYYMKWVRQAPGQGLEWIGDIIPSNGATFYNQKFKGRVTITVDKSTSTAYMELSSLRSEDTAVYYCARSHLLRASWFAYWGQGTLVTVSS
VL: DFVMTQSPDSLAVSLGERVTMSCKSSQSLLNSGNQKNYLTWYQQKPGQPPKLLIYWASTRESGVPDRFSGSGSGTDFTLTISSLQAEDVAVYYCQNDYSYPYTFGQGTKLEIK
VH2: EVQLVESGGGLVQPGGSLRLSCAASGFTFSTYAMNWVRQAPGKGLEWVGRIRSKYNNYATYYADSVKDRFTISRDDSKNSLYLQMNSLKTEDTAVYYCVRHGNFGNSYVSWFAYWGQGTLVTVSS
VL2: QAVVTQEPSLTVSPGGTVTLTCRSSTGAVTTSNYANWVQQKPGQAPRGLIGGTNKRAPWTPARFSGSLLGGKAALTITGAQAEDEADYYCALWYSNLWVFGGGTKLTVL
modifications: DART
killing of AML cell lines and primary AML blasts: dose-dependent killing
